Measurements: patent US6376459

Molecular target: CD40CR (CD40 counter-receptor), 39 kD membrane protein of activated murine helper T cells (murine) (UniProt P27548)
Experiment: flow cytometry on activated Th, FITC-RG7 detection

Chain of UniProt P27548 (P27548 whole entry): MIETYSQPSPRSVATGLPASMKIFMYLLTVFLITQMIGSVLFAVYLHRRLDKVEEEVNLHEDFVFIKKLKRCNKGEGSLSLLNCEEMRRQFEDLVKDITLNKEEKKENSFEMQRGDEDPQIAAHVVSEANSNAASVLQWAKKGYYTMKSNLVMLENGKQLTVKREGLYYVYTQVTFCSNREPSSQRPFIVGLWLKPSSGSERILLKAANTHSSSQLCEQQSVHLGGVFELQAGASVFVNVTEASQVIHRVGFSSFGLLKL

“MR1, hamster anti-murine gp39 monoclonal antibody” showed a percent positive cells of 61%.
